2 molecules from patent US20180237480A1 (UNIVERSITY OF EDINBURGH, published 2018) can be followed below.

Assay in all cases: solid phase adherence assay, L. lactis on coated plates, absorbance 590 nm
Assay [1] deals with T1, human fibrinogen (human, UniProt P02671 20-629; P02675 31-491; P02679 27-437).
T1 construct: The three chains are general knowledge about fibrinogen; also called human Fg
T1 sequence 1: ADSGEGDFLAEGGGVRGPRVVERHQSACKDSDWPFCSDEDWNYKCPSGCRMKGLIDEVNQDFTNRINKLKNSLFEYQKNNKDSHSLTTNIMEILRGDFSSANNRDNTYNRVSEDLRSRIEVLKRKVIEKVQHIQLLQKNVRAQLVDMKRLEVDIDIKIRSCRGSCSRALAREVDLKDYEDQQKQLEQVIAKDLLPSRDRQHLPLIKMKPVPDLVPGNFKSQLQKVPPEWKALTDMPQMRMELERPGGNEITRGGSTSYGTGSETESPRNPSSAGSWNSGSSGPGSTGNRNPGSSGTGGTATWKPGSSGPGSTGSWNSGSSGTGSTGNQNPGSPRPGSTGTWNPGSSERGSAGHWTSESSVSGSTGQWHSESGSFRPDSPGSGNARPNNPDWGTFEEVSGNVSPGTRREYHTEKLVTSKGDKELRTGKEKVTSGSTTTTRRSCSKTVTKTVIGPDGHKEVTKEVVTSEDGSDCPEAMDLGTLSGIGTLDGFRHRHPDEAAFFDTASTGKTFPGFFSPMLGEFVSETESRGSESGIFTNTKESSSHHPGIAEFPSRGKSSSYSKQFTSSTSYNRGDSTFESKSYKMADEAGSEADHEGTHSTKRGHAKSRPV
T1 sequence 2: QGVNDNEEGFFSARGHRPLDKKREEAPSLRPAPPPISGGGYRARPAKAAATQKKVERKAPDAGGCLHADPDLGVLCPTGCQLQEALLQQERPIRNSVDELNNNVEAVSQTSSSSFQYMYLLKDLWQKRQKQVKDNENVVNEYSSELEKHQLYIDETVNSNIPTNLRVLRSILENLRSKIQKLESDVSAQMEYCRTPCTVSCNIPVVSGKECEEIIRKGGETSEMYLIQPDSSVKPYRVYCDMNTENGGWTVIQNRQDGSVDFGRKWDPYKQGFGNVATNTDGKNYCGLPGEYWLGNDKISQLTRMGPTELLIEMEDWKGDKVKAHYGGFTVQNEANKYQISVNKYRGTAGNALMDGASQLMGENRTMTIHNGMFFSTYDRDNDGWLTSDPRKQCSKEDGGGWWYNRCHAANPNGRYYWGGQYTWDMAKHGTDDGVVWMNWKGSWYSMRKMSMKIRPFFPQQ
T1 sequence 3: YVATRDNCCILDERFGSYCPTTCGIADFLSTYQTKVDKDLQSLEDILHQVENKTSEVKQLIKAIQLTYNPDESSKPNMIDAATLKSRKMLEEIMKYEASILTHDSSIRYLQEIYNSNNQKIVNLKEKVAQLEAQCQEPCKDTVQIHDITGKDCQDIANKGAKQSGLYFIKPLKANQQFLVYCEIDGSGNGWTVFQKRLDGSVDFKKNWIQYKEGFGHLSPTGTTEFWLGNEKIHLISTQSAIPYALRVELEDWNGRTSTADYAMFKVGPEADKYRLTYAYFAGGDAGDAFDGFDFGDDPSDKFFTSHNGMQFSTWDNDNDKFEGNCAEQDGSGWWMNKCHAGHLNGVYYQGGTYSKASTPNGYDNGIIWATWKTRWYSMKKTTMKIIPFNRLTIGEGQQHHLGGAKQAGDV

Assay [2] addresses T2, bovine fibrinogen (bovine, UniProt P02672 20-615; P02676 1-468; P12799 25-444).
T2 construct: The three chains are general knowledge about fibrinogen; also called bovine Fg
T2 sequence 1: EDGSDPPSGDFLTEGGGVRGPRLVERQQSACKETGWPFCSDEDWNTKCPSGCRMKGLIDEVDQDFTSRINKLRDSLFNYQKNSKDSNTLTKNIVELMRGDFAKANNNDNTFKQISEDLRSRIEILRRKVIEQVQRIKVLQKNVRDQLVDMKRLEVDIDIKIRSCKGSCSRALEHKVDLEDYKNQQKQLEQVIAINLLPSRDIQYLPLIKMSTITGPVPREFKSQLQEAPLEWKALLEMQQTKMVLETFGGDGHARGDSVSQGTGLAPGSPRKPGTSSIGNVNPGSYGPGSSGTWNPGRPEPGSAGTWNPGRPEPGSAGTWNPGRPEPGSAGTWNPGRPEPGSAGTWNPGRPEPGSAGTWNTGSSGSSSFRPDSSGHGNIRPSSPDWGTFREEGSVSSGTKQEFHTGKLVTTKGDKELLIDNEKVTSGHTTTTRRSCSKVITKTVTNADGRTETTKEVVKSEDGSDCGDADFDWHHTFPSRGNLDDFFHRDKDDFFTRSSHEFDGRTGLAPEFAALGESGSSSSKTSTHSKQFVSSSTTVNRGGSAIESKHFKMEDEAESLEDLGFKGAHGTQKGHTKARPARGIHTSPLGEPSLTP
T2 sequence 2: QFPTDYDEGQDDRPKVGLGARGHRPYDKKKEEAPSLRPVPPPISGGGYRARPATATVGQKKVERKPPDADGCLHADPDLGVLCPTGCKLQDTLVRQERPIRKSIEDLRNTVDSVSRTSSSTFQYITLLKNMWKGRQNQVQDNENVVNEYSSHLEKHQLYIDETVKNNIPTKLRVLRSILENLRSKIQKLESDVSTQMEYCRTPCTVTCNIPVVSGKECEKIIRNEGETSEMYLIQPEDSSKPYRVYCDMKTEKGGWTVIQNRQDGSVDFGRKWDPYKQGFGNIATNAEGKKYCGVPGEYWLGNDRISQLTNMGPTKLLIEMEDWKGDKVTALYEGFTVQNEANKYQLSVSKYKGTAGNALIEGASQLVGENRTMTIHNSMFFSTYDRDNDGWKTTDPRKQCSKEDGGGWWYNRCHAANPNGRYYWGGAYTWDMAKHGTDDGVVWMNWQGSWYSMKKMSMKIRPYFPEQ
T2 sequence 3: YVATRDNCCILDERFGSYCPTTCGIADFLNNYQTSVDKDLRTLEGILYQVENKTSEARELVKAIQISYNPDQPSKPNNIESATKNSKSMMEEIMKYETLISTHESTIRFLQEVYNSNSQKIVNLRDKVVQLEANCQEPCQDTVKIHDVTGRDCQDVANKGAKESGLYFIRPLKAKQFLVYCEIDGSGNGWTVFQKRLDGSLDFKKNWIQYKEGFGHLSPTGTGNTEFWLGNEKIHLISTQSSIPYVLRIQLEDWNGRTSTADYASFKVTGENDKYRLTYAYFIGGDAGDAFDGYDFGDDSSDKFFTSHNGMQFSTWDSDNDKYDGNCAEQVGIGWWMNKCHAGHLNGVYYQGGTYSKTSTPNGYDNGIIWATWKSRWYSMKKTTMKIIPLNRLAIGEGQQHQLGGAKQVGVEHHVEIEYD

Assay [3] addresses T3, recombinant mouse cytokeratin 10 (mouse, UniProt P02535 454-570).
T3 construct: also called CK10; recombinant CK10
T3 sequence: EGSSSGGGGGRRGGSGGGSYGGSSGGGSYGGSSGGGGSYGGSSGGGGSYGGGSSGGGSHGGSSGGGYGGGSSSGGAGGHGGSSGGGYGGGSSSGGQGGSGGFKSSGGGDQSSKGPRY

B1: SpsO of S. pseudintermedius ED99, full-length, expressed on L. lactis MG1363 (pOri23) (other)
chain: SVKEGQQSINSSEKESADPTVVDLISKKETNLDGLDVSREETTKVPINENKRGEEQSISDKAITEKADTPVSNLSSKEVEEQGVSDKAITEKADTPVTNLSSKEAKEQGASDRVITEKADTPVSNLSSKEAKEQGASDRVITEKADTPVSNLSSKEVEEQGVSDKAIEKIADASATDLSSKEEVEQDISTQGKVKSKEAVQVESSQLQNLNSEINAEPNEIKAIDRSSILPLNLNDEENNKKVNKGTRVPEATLRNASNNQLNTRMRSVSLFRVARLTEINRNVNDKVKVSDIDIAIAPPHTNPKTGKEEFWATSSSVLKLKASYELDNSISKGDQFTIQFGQNIRPGGLNLPRPYNFLYDKDKKLVATGRYNKESNTITYTFTDYVDKHQNIKGSFEMNAFSRKENATTDKTAYPMDVTIANQKYSENIIVDYGNKKNAAIISSTEYIDLDGSRKMTTYINQNGSKNSIYRADMQIDLNGYKFDPSKNNFKIYEVENSSDFVDSFSPDVSKLRDVTSQFNIQYTNNNTMAKVDFGTNLWRGKKYIIQQVANIDDSKLVKNASINYTLNKMDFNNKRTVETHNNTYSTVKDKSTALGDVQESQSISESQSVSESESLSESQSISESESLSESQSISESESLSESQSISESESLSESQSISESESLSESQSISESESLSESQSISESESLSESQSISESESLSESQSISESESLSESQSISESESLSESQSISESESLSESQSISESESLSESQSISESESLSESQSISESESLSESQSISESESLSESQSISESESLSESQSISESESLSESQSISESESLSESQSISESESLSESQSISESESLSESQSISESESLSESQSISESESLSESQSISESESLSESQSISESESLSESQSISESESLSESQSISESESLSESQSISESESLSESQSISESESLSESQSISESESLSESQSISESESLSESQSVSESESLSESQSISESESLSESQSISESESLSESQSISESESLSESQSISESESLSESQSISESESLSESQSISESESLSESQSISESESLSESQSISESESLSESQSISESESLSESQSISESESLSESQSISESESLSESQSISESESLSESQSISESESLSESQSISESESLSESQSVSESESLSESQSISESESLSESQSISESESLSESQSISESESLSESQSISESESLSESQSISESESLSESQSISESESLSESQSISESESLSESQSVSESESLSESQSISESESLSESQSISESESLSESQSISESESLSESQSISESESLSESQSISESESLSESQSISESESLSESQSISESESLSESQSISESESLSESQSISESESLSESQSISESESLSESQSISESESLSESQSISESESLSESQSISESESLSESQSISESESLSESQSISESESLSESQSISESESLSESQSISESESLSESQSISESESLSESQSISESESLSESQSISERESLSESQSISESESLSESQSISESESLSESQSISESESLSESQSISESESLSESQSISESESLSESQSISESESLSESQSISESESLSESQSISESESLSESQSISESESLSESQSISESESLSESQSVSESESLSESQSISESESLSESQSISESESLSESQSISESESLSESQSISESESLSESQSISESESLSESQSISESESLSESQSISESESLSESQSISESESLSESQSISESESLSESQSISESESLSESQSISESESKSLPNTGTGEKISNYPGILGGLLSILGISLLKRKDREKKLGQKSNK
notes: also called L. lactis expressing SpsO; putative MSCRAMM SpsO
Turning to B1, the binding result in assay [1] was “no binding (tested: 1 µg Fg coated per well)”; in assay [2], “no binding (tested: 1 µg Fg coated per well)”; in assay [3], “no binding (tested: 1 µg CK10 coated per well)”.

B2: SpsL of S. pseudintermedius ED99, full-length, expressed on L. lactis MG1363 (pOri23) (other)
chain: NEDVTETTGRNSVTTQASEQHLQVEAVPQEGNNVNVSSVKVPTNTATQAQEDVASVSDVKAHADDALQVQESSHTDGVSSEFKQETAYANPQTAETVKPNSEAVHQSEYEDKQKPVSSSRKEDETMLQQQQVEAKNVVSAEEVSKEENTQVMQSPQDVEQHVGGKDISNEVVVDRSDIKGFNSETTIRPHQGQGGRLNYQLKFPSNVKPGDQFTIKLSDNINTHGVSVERTAPRIMAKNTEGATDVIAEGLVLEDGKTIVYTFKDYVNGKQNLTAELSVSYFVSPEKVLTTGTQTFTTMIGNHSTQSNIDVYYDNSHYVDGRISQVNKKEAKFQQIAYINPNGYLNGRGTIAVNGEVVSGTTKDLMQPTVRVYQYKGQGVPPESITIDPNMWEEISINDTMVRKYDGGYSLNLDTSKNQKYAIYYEGAYDAQADTLLYRTYIQSLNSYYPFSYQKMNGVKFYENSASGSGELKPKPPEQPKPEPEIQADVVDIIEDSHVIDIGWNTAVGEESGANQGPQEEITENHDIEVIEENNLVEMTEDTAVGEESGANQGPQEEITENHDIEVIEENNLVEMTEDTALEEESGANQGPQEEITENHDIEVIEENNLVEMTEDTALEEESGANQGPQEEITENHDIEVIEENNLVEMTEDTAVGEESGANQGPQEEITENHDIEVIEENNLVEMTEDTAVGEESGANQGPQEEITENHDIEVIEENNLVEMTEDTALEEESGANQGPQEEITENHNIEVIEENNLVEMTEDTAVGEESGANPGPQEEVTENQPQQEEIMENQEVEKKGDSNLVESTKTPKAEESVSVQPTLEDKNTKNHVNTVVVNTKVSEVKEKDPHHTKALPDTGTTSRSHSMMIPLLLVAGSVVLLRRKKKHSKVN
notes: also called L. lactis expressing SpsL; putative MSCRAMM SpsL
B2: the binding result is given as “no binding (tested: 1 µg Fg coated per well)” in assay [1], “no binding (tested: 1 µg Fg coated per well)” in assay [2] and “no binding (tested: 1 µg CK10 coated per well)” in assay [3].
